The results in this text go back to publication PMC12480839, “Selective agonists of KIR and NKG2A to evade missing self response of natural killer cells” (Scientific Reports, 2025).

Assay [1] has as its target T1, recombinant KIR2DL2 protein (flow cytometry binding assay) (UniProt P43627).
T1 construct: KIR2DL2
Put plainly: flow cytometry on cells; recombinant receptor proteins at 0.1 µM in autoMACS Running Buffer added to 1 × 10^4 K562 cells expressing the membrane-bound scFv, 4 °C, 90 min; detected with APC anti-human IgG Fc antibody; median fluorescence normalised to control K562 cells. To be noted: one partner purified.

Assay [2] addresses T2, recombinant KIR2DL3 protein (flow cytometry binding assay) (UniProt P43628).
T2 construct: KIR2DL3; In the functional rows the receptor was whole KIR2DL3*001 expressed on NK-92 cells
The description is as above. The note with it: one partner purified.

T2 sequence (P43628 22-245): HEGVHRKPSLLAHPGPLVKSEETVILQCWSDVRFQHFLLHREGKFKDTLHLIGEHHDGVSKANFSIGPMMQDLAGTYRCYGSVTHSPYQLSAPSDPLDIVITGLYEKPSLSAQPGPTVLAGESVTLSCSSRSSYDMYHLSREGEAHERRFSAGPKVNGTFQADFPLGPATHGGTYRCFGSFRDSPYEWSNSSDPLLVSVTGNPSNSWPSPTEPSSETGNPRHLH
T1 sequence (P43627 22-245): as the sequence (P43628 22-245) above, with P16R, Q35E, R148C, T200I, E216K counted along it

B1: membrane-bound KIR2DL2/3 agonist 61 scFv expressed on K562 cells (scFv, V domains shown)
VH: QVQLVQSGAEVKKPGSSVKVSCKASGGTFSSFAISWVRQAPGQGLEWMGGIIPIFGTANYAQKFQGRVTITADESTSTAYMELSSLRSEDTAVYYCARVSGTTGGYYYGMDVWGQGTLVTVSS
VL: AIRMTQSPSSVSASVGDRVTITCRASQGIGNWLAWYQQKPGRAPKLLISTASSLQSGVPSRFSGGGSGRGFTLTISSLQLEDFATYYCQQSYITPWTFGQGTKVEIK
notes: (G4S)3 linker between the two scFv chains; second variable domain of agonist 61; Made with a CD8 signal peptide; firefly luciferase follows across a T2A peptide; also called scFv 61; KIR2DL2/3-specific scFv; source: K562 cells, transduced, on the cell surface; not shown: truncated human CD8 (CD8 hinge), C-terminal, kept
Consider B1, for which the binding result in assay [1] and in assay [2] was “binds” each time.
